According to US20240084003A1 (SIMCERE ZAIMING PHARMACEUTICAL, published 2024):
Where a chain is given by its changes, count along the chain named.

T1: human CD22-ECD-His protein (human, UniProt P20273 20-687)
T1 construct: Made in house in HEK293E; also called hCD22-ECD-His; recombinant human CD22-ECD His protein; not shown: His tag
T1 sequence: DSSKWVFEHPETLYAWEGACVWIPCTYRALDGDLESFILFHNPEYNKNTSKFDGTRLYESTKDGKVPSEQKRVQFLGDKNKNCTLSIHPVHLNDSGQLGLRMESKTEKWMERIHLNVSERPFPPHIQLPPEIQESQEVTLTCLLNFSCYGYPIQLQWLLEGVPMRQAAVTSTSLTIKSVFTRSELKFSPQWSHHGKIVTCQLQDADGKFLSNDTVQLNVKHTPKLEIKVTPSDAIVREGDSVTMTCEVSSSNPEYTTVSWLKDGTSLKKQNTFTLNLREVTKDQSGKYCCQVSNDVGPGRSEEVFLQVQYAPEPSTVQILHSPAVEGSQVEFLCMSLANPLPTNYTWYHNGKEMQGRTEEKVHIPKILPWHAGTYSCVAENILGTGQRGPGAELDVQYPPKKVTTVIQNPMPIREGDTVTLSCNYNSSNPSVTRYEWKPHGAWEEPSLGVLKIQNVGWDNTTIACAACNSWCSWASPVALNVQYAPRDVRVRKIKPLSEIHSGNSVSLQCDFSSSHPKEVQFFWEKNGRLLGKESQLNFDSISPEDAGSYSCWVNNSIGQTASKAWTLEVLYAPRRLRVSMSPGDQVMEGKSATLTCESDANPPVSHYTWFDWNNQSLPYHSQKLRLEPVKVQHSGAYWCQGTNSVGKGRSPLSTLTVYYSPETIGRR

T2: human CD22 domain1-4-His (human, UniProt P20273 20-425)
T2 construct: also called hCD22 domain1-4-His; not shown: His tag
T2 sequence: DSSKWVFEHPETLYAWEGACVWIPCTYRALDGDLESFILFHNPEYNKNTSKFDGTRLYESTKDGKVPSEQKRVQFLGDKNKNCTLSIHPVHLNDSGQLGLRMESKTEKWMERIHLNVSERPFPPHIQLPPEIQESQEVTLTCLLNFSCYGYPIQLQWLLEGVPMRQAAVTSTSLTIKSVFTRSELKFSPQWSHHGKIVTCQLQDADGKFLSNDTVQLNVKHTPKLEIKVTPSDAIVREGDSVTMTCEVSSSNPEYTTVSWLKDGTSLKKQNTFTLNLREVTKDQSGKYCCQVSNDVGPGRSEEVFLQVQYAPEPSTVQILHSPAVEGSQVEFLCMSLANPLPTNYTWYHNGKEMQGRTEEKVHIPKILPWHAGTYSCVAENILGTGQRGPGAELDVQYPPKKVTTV

B1: F2.70.2 (antibody, human IgG1, lambda, V domains shown)
VH: EVQLVESGGGLVKPGGSLKLSCAASGFTFSDYGMNWFRQAPEKGLEWVAYISRGSHTIYYADTVKGRFTISRDNAKNTLFLQMTSLRSNDTAMYYCVRMAGYYAMDYWGQGTSVTVSS
VL: QLVLTQSSSASFSLGASAKLTCTLSSQHSSYIIEWYQQQPLKPPKYVMELKKDGSHSTGDGIPDRFSGSSSGADRYLSISNIQPEDEAIYICGVGDTIKEQFVYVFGGGTKVTVLG
notes: Human-murine chimeric IgG1, lambda
B2: F2.180.16 (antibody, human IgG1, lambda, V domains shown)
VH: EVKLVESGGGLVLPGGSLKISCAASGFTFSDYYMYWIRQTPDKRLEWVAYISNTGYSTFYPDSVKGRFTVSRDNAKNTLYLQMSRLQSEDTAMYYCARHGILYAMDYWGQGTSVTVSS
VL: B1 VL with L2P, H28Y, S30T, I32T, E34G, K52H, H56R, S57H, I89T, V103M
notes: as for B1
B3: F2.104.10 (antibody, human IgG1, lambda, V domains shown)
VH: B1 VH with L11F, K76E, V114L
VL: B1 VL with L50V, P84S
notes: as for B1
B4: F1.60.9 (antibody, human IgG1, kappa, V domains shown)
VH: QVQLKESGPGLVAPSQSLSITCTVSGLSLNNYGVSWVRQPPGKGLEWLGVIWGDGSTNYHSALISRLSISKDNSKSQVFLKLNSLHTDDTATYYCAINWGDYWGQGTTLIVSS
VL: DIKMTQSPSSMNASLGERVTITCKASQDINSYLSWFQQKPGKSPKILIYRANRLIDGVPSRFSGSGSGQDYSLTISSLEYEDMGIYYCLQYGVFPLTFGAGTKLELKR
notes: Human-murine chimeric IgG1, kappa
B5: F2.343.16 (antibody, human IgG1, lambda, V domains shown)
VH: QVQLKQSGPGLVQPSQSLSITCTVSGFSLTGYGVQWVRQSPGKGLEWLGVIWGGGGTDYNAAFISRLNIIKDNSKSQVFFKMNSLQADDTAIYYCARYSKYGHFDVWGTGTAVTVSS
VL: QAVVTQESALTTSPGETVTLTCRSSTGAVTTSNYANWVQEKPDHLFTGLIGGTYNRVPGVPARFSGSLIGDKAALTITGAQTEDEAIYFCALWYSNHFWVFGGGTKLTVLG
notes: as for B1

The binders below were run against T1, human CD22-ECD-His protein (assay: ELISA, Ab 0.01 nM).
Outline: (§1)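 After overnight 4 °C coating with 2 μg/mL CD22-ECD-His and 2 h BSA blocking, wells received antibody, then HRP conjugate (each 2 h, 37 °C). Signal came from TMB, 30 min at room temperature, acid-stopped.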

Compared with B1, B2 is lower in OD450: 1.56 OD450 for the first, 1.55 OD450 for the second.

Going from B3 to B4, the OD450 rises from 1.7 OD450 to 1.75 OD450.

For B5, the OD450 was 1.29 OD450.

Each binder was assayed against T1, human CD22-ECD-His protein (assay: ELISA, Ab 0.10 nM).
Outline: as §1

Going from B1 to B2, the OD450 falls from 1.86 OD450 to 1.8 OD450.

First: B3
Second: B4
The OD450 of the first is lower: 1.94 OD450 for the first, 2.59 OD450 for the second.

Work on B5 yielded an OD450 of 1.93 OD450.

Each binder was assayed against T1, human CD22-ECD-His protein (assay: ELISA, Ab 0.001 nM).
Outline: as §1

Going from B1 to B2, the OD450 rises from 0.57 OD450 to 0.61 OD450.

Going from B3 to B4, the OD450 falls from 0.66 OD450 to 0.47 OD450.

Binder B5 has an OD450 of 0.43 OD450.

These binders were tested against T1, human CD22-ECD-His protein (assay: ELISA, Ab 0.0001 nM).
Outline: as §1

Going from B1 to B2, the OD450 rises from 0.18 OD450 to 0.31 OD450.

Going from B3 to B4, the OD450 falls from 0.32 OD450 to 0.13 OD450.

In the case of B5, the OD450 is reported as 0.25 OD450.

Each binder was assayed against T1, human CD22-ECD-His protein (assay: ELISA, Ab 0.00001 nM).
Outline: as §1

Compared with B1, B2 is higher in OD450: 0.09 OD450 for the first, 0.21 OD450 for the second.

Compared with B3, B4 is lower in OD450: 0.22 OD450 for the first, 0.09 OD450 for the second.

B5 gave an OD450 of 0.18 OD450.

These binders were tested against T2, human CD22 domain1-4-His (assay: ELISA, human CD22 domain1-4-His coated).

B1 and B3 are within 1.5-fold of each other in “EC50 (read off the curve)” value: roughly 0.03 nM for the first, roughly 0.04 nM for the second.

In the case of B5, the “EC50 (read off the curve)” value is reported as roughly 0.06 nM.

B2: no binding (tested: 100 nM).
B4: no binding (tested: 100 nM).
